Reference: patent publication US20110158954A1, “METHOD FOR PRODUCING GAMMA DELTA T CELL POPULATION” (priority 2007, published 2011)

B1: H296-H296: modified fibronectin fragment in which two H-296's are connected to each other (SEQ ID NO: 22) (protein)
chain: AIPAPTDLKFTQVTPTSLSAQWTPPNVQLTGYRVRVTPKEKTGPMKEINLAPDSSSVVVSGLMVATKYEVSVYALKDTLTSRPAQGVVTTLENVSPPRRARVTDATETTITISWRTKTETITGFQVDAVPANGQTPIQRTIKPDVRSYTITGLQPGTDYKIYLYTLNDNARSSPVVIDASTAIDAPSNLRFLATTPNSLLVSWQPPRARITGYIIKYEKPGSPPREVVPRPRPGVTEATITGLEPGTEYTIYVIALKNNQKSEPLIGRKKTDELPQLVTLPHPNLHGPEILDVPSTAMAIPAPTDLKFTQVTPTSLSAQWTPPNVQLTGYRVRVTPKEKTGPMKEINLAPDSSSVVVSGLMVATKYEVSVYALKDTLTSRPAQGVVTTLENVSPPRRARVTDATETTITISWRTKTETITGFQVDAVPANGQTPIQRTIKPDVRSYTITGLQPGTDYKIYLYTLNDNARSSPVVIDASTAIDAPSNLRFLATTPNSLLVSWQPPRARITGYIIKYEKPGSPPREVVPRPRPGVTEATITGLEPGTEYTIYVIALKNNQKSEPLIGRKKTDELPQLVTLPHPNLHGPEILDVPST
modifications: Fibronectin fragment named H296-H296

Assays:
K562 cells = test: Cytotoxic activity of cultured γδ T cell population, Calcein-AM release; format: cell-based, human; conditions: γδ T cells expanded 14 days with pamidronate on immobilized FN fragment; target cells K526 (so in the source); E/T 30; 4 hours
Protocol: The cytotoxic activity was determined for the cells on the fourteenth day from the initiation of culture prepared in Example 3-(1). The cytotoxic activity was evaluated by a method for assaying cytotoxic activity using Calcein-AM [Lichtenfels R. et al., J. Immunol. Methods 172(2), 227-239 (1994)]. […]
The cells on the fourteenth day from the initiation of culture prepared in Example 3-(1) were diluted with an RPMI 1640 medium containing 5% (v/v) human AB serum, 0.1 mM NEAA mixture, 1 mM sodium pyruvate (all manufactured by Cambrex), 2 mM L-glutamine, 10 μg/mL streptomycin sulfate (hereinafter referred to as “5HRPMI”) as effector cells, so as to have a concentration of 3×10^6 cells/mL. […] Upon the addition, the ratio of the effector cells (E) to the Calcein-labeled target cells (T) is expressed as an E/T ratio, and the measurements were made at an E/T ratio of 30. […] Thereafter, 100 μL of the culture supernatant was collected from each well, and the amount of Calcein released into the culture supernatant was determined with a fluorescence plate reader (Mithras LB 940, manufactured by BERTHOLD TECHNOLOGIES) (excited at 485 nm/measured at 535 nm). The “cytotoxic activity (%)” was calculated in accordance with the following formula.
Cytotoxic Activity (%)={(Measured Value in Each Well−Minimum Released Amount)/(Maximum Released Amount−Minimum Released Amount)}×100 […]

γδ T cells [1] = test: Expansion of γδ T cell population using pamidronate in Yssel's medium (Example 4); format: cell-based; conditions: human PBMCs, stimulant pamidronate 5 μM, IL-2 100 U/mL, immobilized FN fragment, day 14
Protocol: The expansion of a γδ T cell population was carried out in the same manner as in Example 2-(1), provided that as a basal medium for culture, a medium prepared originally by the applicant having the same composition as an Yssel's medium (hereinafter referred to as “Yssel's medium”) was used in place of IMDM, and that on the fifth day from the initiation of culture, 1 mL of an Yssel's medium containing 10% (v/v) human AB serum was added to each well, to dilute the cell suspension.
The ratio of γδ T cells was analyzed according to flow cytometry for PBMCs prepared in Example 1-(1) and the cells on the fourteenth day from the initiation of culture prepared in Example 4-(1), in the same manner as in Example 1-(4). As a result, the ratio of the γδ T cells was 8.9% for the PBMCs, and the ratio was from 89.7 to 94.3% for the cells on the fourteenth day from the initiation of culture.
(§1) The number of live cells was counted according to trypan blue staining method for the cells on the fourteenth day from the initiation of culture prepared in Example 4-(1). The expansion fold of γδ T cells was calculated in comparison of the counted number with the number of γδ T cells at the initiation of culture, in the same manner as in Example 1-(5).

γδ T cells [2] = test: Expansion of γδ T cell population using zoledronate (Example 5); format: cell-based; conditions: human PBMCs; RPMI 1640, then 10HRPMI+L-Gln; stimulant zoledronate 1 μM for 48 hours; IL-2 100 U/mL; immobilized FN fragment; day 14
Protocol: The immobilization of an FN fragment was carried out in the same manner as in Example 1-(2), provided that a 6-well cell culture plate was used as a plate to be immobilized, and that an ACD-A solution (pH 5.0) containing H296-H296 (final concentration: 3 μg/mL) was added in a volume of 1.2 mL/well each.
PBMCs prepared in Example 1-(1) were suspended in an RPMI 1640 medium containing 0.25% (w/v) HSA so as to have a concentration of 1×10^6 cells/mL, to prepare a cell suspension. Thereafter, the above cells were added to a plate to which nothing was immobilized, or the plate immobilized with H296-H296 prepared in Example 5-(1), in a volume of 5 mL/well each. […]
The ratio of γδ T cell was analyzed according to flow cytometry for PBMCs prepared in Example 1-(1) and the cells on the fourteenth day from the initiation of culture prepared in Example 5-(2), in the same manner as in Example 1-(4). […]
as §1, with “5-(2).” for “4-(1).”

Molecule | Cytotoxic Activity (%) (K562 cells) | Expansion Fold of γδ T Cells (Folds) Fourteenth Day of Culture (γδ T cells [1]) | Expansion Fold of γδ T Cells (Folds) Fourteenth Day of Culture (γδ T cells [2])
CH-296: polypeptide comprising a cell binding domain, a heparin binding domain and a CS-1 domain of fibronectin (SEQ ID NO: 13) | 25.45% | ×101.4 Folds | –
B1 | – | – | ×107.5 Folds
